Measured values taken from article PMC3192995.

Assays:
Assay in all cases: two-hybrid
[1] = molecular target: PwHAP5 C130, residues 92-221, fused in pGBKT7 (yeast two-hybrid bait) (Picea wilsonii)
[2] = molecular target: PwHAP5, full-length coding region, fused in pGBKT7 (yeast two-hybrid bait) (Picea wilsonii)
[3] = molecular target: PwHAP5 N77, residues 1-77, fused in pGBKT7 (yeast two-hybrid bait) (Picea wilsonii)

Measured: fold beta-galactosidase activity over the controls

PwFKBP12 in pGADT7-Rec (yeast two-hybrid prey) (natural protein)
20 fold: all assays above
